US20240366814A1 (University of California, published 2024)

T1: CUB domain-containing protein 1 (CDCP1), human, on the surface of human bladder cancer cell lines (human, UniProt Q9H5V8 30-836)
T1 construct: whole, on cells; Endogenous CDCP1 on UMUC3, TCC SUP, 5637, UMUC9 and other bladder cancer lines; also called SIMA135; CD318
T1 sequence (looked up): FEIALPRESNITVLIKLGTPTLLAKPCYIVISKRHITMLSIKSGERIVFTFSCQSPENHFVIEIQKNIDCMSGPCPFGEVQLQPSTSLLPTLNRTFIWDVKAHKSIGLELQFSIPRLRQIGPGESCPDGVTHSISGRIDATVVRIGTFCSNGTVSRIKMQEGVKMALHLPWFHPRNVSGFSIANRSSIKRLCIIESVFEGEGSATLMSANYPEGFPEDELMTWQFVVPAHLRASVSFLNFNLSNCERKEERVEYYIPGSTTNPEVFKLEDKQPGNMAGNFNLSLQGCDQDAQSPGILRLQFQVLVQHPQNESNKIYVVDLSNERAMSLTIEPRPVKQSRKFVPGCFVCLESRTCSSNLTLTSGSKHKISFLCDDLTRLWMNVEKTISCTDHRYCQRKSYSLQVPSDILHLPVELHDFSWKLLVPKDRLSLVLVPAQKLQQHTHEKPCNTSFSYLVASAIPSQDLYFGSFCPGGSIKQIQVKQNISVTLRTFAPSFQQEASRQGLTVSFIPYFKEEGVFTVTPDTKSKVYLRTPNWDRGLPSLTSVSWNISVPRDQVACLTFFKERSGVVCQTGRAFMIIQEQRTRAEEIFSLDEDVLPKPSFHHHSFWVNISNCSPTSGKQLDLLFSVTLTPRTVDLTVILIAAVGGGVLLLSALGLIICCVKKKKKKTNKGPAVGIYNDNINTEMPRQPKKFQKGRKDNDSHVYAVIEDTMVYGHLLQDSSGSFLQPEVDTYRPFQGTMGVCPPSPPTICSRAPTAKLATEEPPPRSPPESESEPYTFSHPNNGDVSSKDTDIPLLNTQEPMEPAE


Columns and labels:
[1] = target: T1, CUB domain-containing protein 1 …; assay: flow cytometry on human bladder cancer cell lines (5637, HT-1197, HT-1397, UMUC9, 639V, T24, 253JBV, UMUC3, TCCSUP)
Method: Flow Cytometry. Cells were trypsinized and washed, and then incubated with either a PE-anti-CDCP1 antibody (Biolegend #324017, 1:100) or 4A06 for 30 minutes on ice. For cells incubated with unlabeled 4A06, after the 30 min incubation, the cells were washed with PBS multiple times and placed in a fluorophore conjugated secondary antibody solution for 30 minutes on ice (1:1000, 109-546-097, Jackson ImmunoResearch). Cells were collected and washed before being placed in PBS and passed through a cell strainer. Cells were analyzed using an Attune NxT Flow and data were analyzed using FlowJo software.
(§1) CDCP1 protein expression in human bladder cancer cell lines representing luminal (5637, HT-1197, HT-1397, UMUC9) and basal subtypes (639V, T24, 253JBV, UMUC3, TCCSUP) was evaluated. […] UMUC3 and TCC SUP had the highest expression of CDCP1, while UMUC9 and 253 JBV had the lowest relative level. Cell surface receptor numbers were further quantified using ¹²⁵I-labeled 4A06 antibody.

[2] = target: T1, CUB domain-containing protein 1 …; assay: saturation binding of 125I-4A06 on 5637 cells
Method: (§2) Saturation binding assays. ¹²⁵I-4A06 was prepared as previously reported (Moroz et al., Clin Cancer Res, 6(14):3608-3615, 2020). The final yield of purified ¹²⁵I-4A06 was ˜60% (specific activity ˜1 μCi/μg) and purity was >99%. UMUC3, TCC SUP, 5637, and UMUC9 cells (0.6×10⁶ cell/well) were seeded on 12-well plates using DMEM (10% FBS). The cells were washed with PBS for the saturation binding assay. Total binding of ¹²⁵I-4A06 was determined by adding it to cell suspensions at seven concentrations from 0.025 nM to 10 nM. Non-specific binding was determined by adding 1000× cold 4A06 to ¹²⁵I-4A06/cell mixtures at three concentrations. Cells were incubated with ˜0.5 μCi ¹²⁵I-4A06 at room temperature for 1 hr, washed with PBS, and lysed by adding 1.0 M NaOH. The bound and unbound radioactive fractions were collected and measured on a Hidex Gamma counter (Turku, FI). Bmax was calculated using Prism v8.0.
as §1

[3] = target: T1, CUB domain-containing protein 1 …; assay: saturation binding of 125I-4A06 on UMUC3 cells
Method: as §2, §1

[4] = target: T1, CUB domain-containing protein 1 …; assay: saturation binding of 125I-4A06 on UMUC9 cells
Method: as §2, §1

[5] = target: T1, CUB domain-containing protein 1 …; assay: saturation binding of 125I-4A06 on TCC SUP cells
Method: as §2, §1

Binder | binding result [1] | Kd [2] [nM] | Kd [3] [nM] | Kd [4] [nM] | Kd [5] [nM]
recombinant monoclonal antibody 4A06 (IgG1 format) (antibody, V domains shown, Used unlabelled in flow cytometry, detected with a fluorophore-conjugated secondary antibody; also called CDCP1-002; 4A06 antibody) VH: EVQLVESGGGLVQPGGSLRLSCAASGFNLSYYYIHWVRQAPGKGLEWVASIYSSSSYTSYADSVKGRFTISADTSKNTAYLQMNSLRAEDTAVYYCARAYYGFDYWGQGTLVTVSS VL: DIQMTQSPSSLSASVGDRVTITCRASQSVSSAVAWYQQKPGKAPKLLIYSASSLYSGVPSRFSGSRSGTDFTLTISSLQPEDFATYYCQQSYYYYPITFGQGTKVEIK | binds | – | – | – | –
125I-labeled 4A06 antibody (antibody, V domains shown, radioiodinated with iodine-125; labelled residues not stated, specific activity ~1 uCi/ug, purity >99%); also called ^125I-4A06; 125I-4A06) VH: EVQLVESGGGLVQPGGSLRLSCAASGFNLSYYYIHWVRQAPGKGLEWVASIYSSSSYTSYADSVKGRFTISADTSKNTAYLQMNSLRAEDTAVYYCARAYYGFDYWGQGTLVTVSS VL: DIQMTQSPSSLSASVGDRVTITCRASQSVSSAVAWYQQKPGKAPKLLIYSASSLYSGVPSRFSGSRSGTDFTLTISSLQPEDFATYYCQQSYYYYPITFGQGTKVEIK | – | 0.284 | 1.84 | 0.181 | 0.583
